Experimental findings from publication PMC10906455, “Disruption of CFAP418 interaction with lipids causes widespread abnormal membrane-associated cellular processes in retinal degenerations” (JCI Insight, 2024) are described below.

In this test the target is mCherry-RAB28 WT (UniProt Q99KL7 1-221). Kind of test: co-IP; HEK293 cells cotransfected with FLAG-CFAP418 and mCherry-RAB28 WT, T26N, Q72L or mCherry; mCherry proteins 'pulled down', FLAG-CFAP418 seen only in the overexposed immunoblot. To be noted: partners not purified.

B1: FLAG-CFAP418 (natural protein)
chain: MAKDLDELLDEVETKFCRLDPLRLDLGERPKGDGGGGSHSGDRNGAQEKETLRSTETFKKEDDLDSLINEIFEEPDFDRKSFQKFKSKSSSNTCVRAPMQGVSKSCSPVYLSGSAIPCGIGTNTSQRACDRLRCVACDFRIVSYNDYMWDKSCDYLFFRNNMPEFHKLKTKLIEKKGARAYACQCSWRTVEELTDLQTDHQLRWVCGKH
notes: CFAP418; source: HEK293, cotransfected, in lysate
Turning to B1, the “fraction of CFAP418 pulled down” value was approximately 0.1%.
